Measured values: patent US20100297712A1
Values belong to the molecule of their own block, whether it stands above or below them.

Assays:
[1] = target: vitamin D3 hydroxylase (VDH) of Pseudonocardia autotrophica NBRC12743 strain (Pseudonocardia autotrophica) (UniProt C4B644); test: cell-based or functional assay
[2] = target: T1, ferredoxin (ThcC) derived from Rhodococcus erythropolis strain NI86/21, P43493
T1 chain: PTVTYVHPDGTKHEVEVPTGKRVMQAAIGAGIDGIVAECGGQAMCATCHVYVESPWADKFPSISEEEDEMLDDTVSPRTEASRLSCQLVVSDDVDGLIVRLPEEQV

[3] = target: T2, vitamin D3 hydroxylase (VDH) of Pseudonocardia autotrophica NBRC12743 strain
T2 chain: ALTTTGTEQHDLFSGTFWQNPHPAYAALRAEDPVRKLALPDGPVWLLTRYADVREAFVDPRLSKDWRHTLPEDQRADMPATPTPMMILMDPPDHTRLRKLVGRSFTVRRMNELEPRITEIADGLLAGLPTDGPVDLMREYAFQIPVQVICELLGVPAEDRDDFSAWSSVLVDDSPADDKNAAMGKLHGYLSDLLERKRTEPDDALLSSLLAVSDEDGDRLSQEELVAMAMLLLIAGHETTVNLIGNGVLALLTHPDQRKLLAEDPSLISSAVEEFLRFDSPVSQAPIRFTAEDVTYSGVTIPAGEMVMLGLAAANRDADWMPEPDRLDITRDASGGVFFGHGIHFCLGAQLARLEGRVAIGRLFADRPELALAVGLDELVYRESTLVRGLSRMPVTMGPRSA

relative activity per expressed VDH, against the transformant expressing VDH solely [1]: 6 fold
Molecule: ferredoxin (ThcC) derived from Rhodococcus erythropolis strain NI86/21 (from UniProt P43493 2-107)

B1: vitamin D3 hydroxylase (VDH) of Pseudonocardia autotrophica NBRC12743 strain (protein)
chain: ALTTTGTEQHDLFSGTFWQNPHPAYAALRAEDPVRKLALPDGPVWLLTRYADVREAFVDPRLSKDWRHTLPEDQRADMPATPTPMMILMDPPDHTRLRKLVGRSFTVRRMNELEPRITEIADGLLAGLPTDGPVDLMREYAFQIPVQVICELLGVPAEDRDDFSAWSSVLVDDSPADDKNAAMGKLHGYLSDLLERKRTEPDDALLSSLLAVSDEDGDRLSQEELVAMAMLLLIAGHETTVNLIGNGVLALLTHPDQRKLLAEDPSLISSAVEEFLRFDSPVSQAPIRFTAEDVTYSGVTIPAGEMVMLGLAAANRDADWMPEPDRLDITRDASGGVFFGHGIHFCLGAQLARLEGRVAIGRLFADRPELALAVGLDELVYRESTLVRGLSRMPVTMGPRSA
Activity (mmol/min/mol of VDH), VD3 conversion by Rhodococcus erythropolis transformant pTipQT-VDH-thcCD (mmol/min/mol of VDH) [2]: 119

B2: ferredoxin reductase (ThcD) derived from Rhodococcus erythropolis strain NI86/21 (protein)
chain: SIVIIGSGQAGFEAAVSLRSHGFSGTITLVGDEPGVPYQRPPLSKAYLHSDPDRESLALRPAQYFDDHRITLTCGKPVVRIDRDAQRVELIDATAIEYDHLILATGARNRLLPVPGANLPGVHYLRTAGEAESLTSSMASCSSLVVIGAGFIGLEVAAAARKKGLDVTVVEAMDRPMARALSSVMSGYFSTAHTEHGVHMRLSTGVKTINAADGRAAGVTTNSGDVIHADAVVVGIGVVPNIELAALTGLPVDNGIVVDEYLRTPDENISAIGDCAAYPIPGKAGLVRLESVQNAVDQARCLAAQLTGTSTHYRSVPWFWSEQYESKLQMAGLTAGADTHVVRGSVDSGVFSIFCFLGTRLLGVESVNKPRDHMAARKILATEMPLTPEQAADTDFDLKLAIARHKDTHKDEVASADIGERQVVAS
Activity (mmol/min/mol of VDH), VD3 conversion by Rhodococcus erythropolis transformant pTipQT-VDH-thcCD (mmol/min/mol of VDH) [3]: 119 | relative activity per expressed VDH, against the transformant expressing VDH solely [3]: 6 fold
